{
  "source": "paper PMC10889554",
  "about": "“An Unusual Two-Domain Thyropin from Tick Saliva: NMR Solution Structure and Highly Selective Inhibition of Cysteine Cathepsins Modulated by Glycosaminoglycans” (International Journal of Molecular Sciences, 2024)",
  "binders": {"B1": {"name": "IrThy-Nd, recombinant N-terminal Tg1 domain of IrThy (domain or fragment)", "chain": "SNAASVPTRVANHGASRPLSDCEQRKQREERNTGPLAIHIECNPDGSYKPMQCFGNPDQPRRMCACYDQEYDQIKAPSRQLKSCK"}},
  "assay_in_all_cases": "enzyme inhibition kinetics (fluorogenic peptide substrate activity assay); inhibitor preincubated with protease 15 min, 37 °C; IC50 from residual velocities, Ki by the Cheng-Prusoff equation; 50 mM sodium acetate pH 5.5, 0.1% polyethylene glycol 1500, 2.5 mM dithiothreitol (cathepsins L, K, V, B, F, C and papain; 50 mM NaCl for cathepsin C)",
  "details_in_all_cases": "both partners purified",
  "key": {"Carica papaya papain": {"target": "T1, Carica papaya papain (Carica papaya, UniProt P00784 134-345)", "T1 construct": "source: bought: Merck", "T1 sequence (looked up)": "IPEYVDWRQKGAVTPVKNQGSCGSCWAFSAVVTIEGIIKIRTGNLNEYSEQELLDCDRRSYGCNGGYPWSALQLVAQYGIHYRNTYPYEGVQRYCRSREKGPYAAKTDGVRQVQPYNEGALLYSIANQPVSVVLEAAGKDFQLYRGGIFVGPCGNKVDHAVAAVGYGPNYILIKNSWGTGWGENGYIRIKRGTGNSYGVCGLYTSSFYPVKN"}, "human cathepsin F": {"target": "T2, human cathepsin F (human, UniProt Q9UBX1 271-484)", "T2 construct": "source: bought: Enzo Life Sciences", "T2 sequence (looked up)": "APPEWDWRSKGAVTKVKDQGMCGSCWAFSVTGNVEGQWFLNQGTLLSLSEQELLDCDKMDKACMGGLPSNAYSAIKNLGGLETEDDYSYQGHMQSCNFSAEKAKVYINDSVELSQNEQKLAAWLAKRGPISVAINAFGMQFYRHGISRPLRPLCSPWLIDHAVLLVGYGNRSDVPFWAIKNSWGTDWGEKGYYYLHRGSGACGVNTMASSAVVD"}, "human cathepsin V": {"target": "T3, human cathepsin V (human, UniProt O60911 114-334)", "T3 construct": "source: Pichia pastoris expression system, as described previously [12,56,57]", "T3 sequence (O60911 114-334)": "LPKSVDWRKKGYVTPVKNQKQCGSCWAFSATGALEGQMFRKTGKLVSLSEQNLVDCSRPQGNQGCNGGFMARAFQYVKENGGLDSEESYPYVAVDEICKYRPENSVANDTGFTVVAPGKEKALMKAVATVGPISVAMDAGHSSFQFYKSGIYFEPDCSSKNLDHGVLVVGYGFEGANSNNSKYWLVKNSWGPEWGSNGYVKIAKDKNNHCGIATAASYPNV"}, "human cathepsin K": {"target": "T4, human cathepsin K (human, UniProt P43235 115-329)", "T4 construct": "source: Pichia pastoris expression system, as described previously [12,56,57]", "T4 sequence (looked up)": "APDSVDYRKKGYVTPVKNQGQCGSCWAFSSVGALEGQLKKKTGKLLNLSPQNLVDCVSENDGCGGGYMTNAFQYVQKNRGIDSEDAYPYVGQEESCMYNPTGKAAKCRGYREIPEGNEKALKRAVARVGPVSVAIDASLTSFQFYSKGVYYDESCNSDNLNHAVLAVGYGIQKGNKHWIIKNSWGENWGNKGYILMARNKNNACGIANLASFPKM"}, "human cathepsin L": {"target": "T5, human cathepsin L (human)", "T5 construct": "source: Pichia pastoris expression system, as described previously [12,56,57]"}},
  "data": [
    {"binder": "B1", "values": [
      {"measurement": "Ki", "setting": "Carica papaya papain", "value": 153, "unit": "nM"},
      {"measurement": "Ki", "setting": "human cathepsin F", "value": 207, "unit": "nM"},
      {"measurement": "Ki", "setting": "human cathepsin V", "value": 27.2, "unit": "nM"},
      {"measurement": "Ki", "setting": "human cathepsin K", "value": 43.7, "unit": "nM"},
      {"measurement": "Ki", "setting": "human cathepsin L", "value": 179, "unit": "nM"}
    ]}
  ]
}
